The values that follow come from patent US20100022453A1.

Test [1] addresses rat NgR1 (Nogo-66 receptor), full-length, expressed on cells (rat) (UniProt Q99M75). Put plainly: cell-based or functional assay.
Test [2] addresses mouse NgR1, endogenous in acute hippocampal slices (mouse) (UniProt Q99PI8). Put plainly: cell-based or functional assay.

rat NgR1 (Nogo-66 receptor), full-length, expressed on cells (rat), sequence (Q99M75 27-447 limits assumed): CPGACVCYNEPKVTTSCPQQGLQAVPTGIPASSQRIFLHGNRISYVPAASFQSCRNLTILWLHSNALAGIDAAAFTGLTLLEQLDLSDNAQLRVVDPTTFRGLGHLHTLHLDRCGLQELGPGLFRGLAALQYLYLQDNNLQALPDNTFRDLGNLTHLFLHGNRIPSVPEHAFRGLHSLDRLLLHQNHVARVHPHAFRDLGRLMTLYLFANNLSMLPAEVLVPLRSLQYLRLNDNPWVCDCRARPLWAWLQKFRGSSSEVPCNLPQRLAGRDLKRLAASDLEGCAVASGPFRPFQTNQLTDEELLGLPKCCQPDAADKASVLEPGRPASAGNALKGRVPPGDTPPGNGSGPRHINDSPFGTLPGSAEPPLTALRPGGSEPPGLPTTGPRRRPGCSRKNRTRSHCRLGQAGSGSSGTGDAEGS
mouse NgR1, endogenous in acute hippocampal slices (mouse), sequence (Q99PI8 27-447): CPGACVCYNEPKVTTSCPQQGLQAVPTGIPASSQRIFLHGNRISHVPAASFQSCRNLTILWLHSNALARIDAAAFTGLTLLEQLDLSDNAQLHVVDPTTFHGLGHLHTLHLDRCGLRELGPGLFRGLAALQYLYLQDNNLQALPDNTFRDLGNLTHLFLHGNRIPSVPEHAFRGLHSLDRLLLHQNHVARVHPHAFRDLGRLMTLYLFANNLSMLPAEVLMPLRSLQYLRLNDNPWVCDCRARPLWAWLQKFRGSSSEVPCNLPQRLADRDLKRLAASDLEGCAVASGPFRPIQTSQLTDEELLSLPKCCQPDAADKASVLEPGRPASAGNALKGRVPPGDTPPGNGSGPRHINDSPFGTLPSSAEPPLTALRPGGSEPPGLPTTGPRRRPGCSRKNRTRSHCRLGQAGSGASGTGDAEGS

In test [1], FGF2 (Peprotech), unlabeled (ligand) registered a percentage of cells with processes longer than two cell bodies in diameter, PC12^NgR1 line NgR1-1, 25 ng/ml FGF2 of 5.6%; a percentage of cells with processes longer than two cell bodies in diameter, PC12^NgR1 line NgR1-2, 25 ng/ml FGF2 of 7.2%; a percentage of cells with processes longer than two cell bodies in diameter, control PC12 cells (very low endogenous NgR1), 25 ng/ml FGF2 of 19.8%. Further, in test [2], the HFS-induced LTP at Schaffer collateral-CA1 synapses, mean fEPSP % of baseline, NgR1 null slices with FGF2 (10 µg/ml) (% of baseline) was determined as 165 and the HFS-induced LTP at Schaffer collateral-CA1 synapses, mean fEPSP % of baseline, wild-type slices with FGF2 (10 µg/ml) (% of baseline) came to 139.
